Source: article PMC8894380, “A multi-factor trafficking site on the spliceosome remodeling enzyme BRR2 recruits C9ORF78 to regulate alternative splicing” (Nature Communications, 2022)
Changes are numbered by the printed parent chain. Numbers in names are those of the source. Values belong to the binder of their own block, whether it stands above or below them.

What was measured:
Settings in all cases: both partners purified
[1] = target: T1, BRR2^HR-PRPF8^Jab1 complex (human, UniProt O75643 395-2129; Q6P2Q9 2064-2335); experiment: SEC; competition: BRR2^HR with equimolar PRPF8^Jab1 and FBP21^116-376 10 min on ice, then with or without equimolar GST-C9ORF78 for 10 min; analytical SEC as above
T1 construct: PRPF8, human, Jab1/MPN-like domain, residues 2064-2335; source: purified BRR2^HR and PRPF8^Jab1 mixed in equimolar amounts

[2] = target: T2, BRR2 helicase region (BRR2^HR, residues 395-2129) (human, UniProt O75643 395-2129); experiment: SEC; analytical SEC, Superdex 200 increase 3.2/300, 20 mM Tris-HCl pH 8.0, 200 mM NaCl, 1 mM DTT; 75 ug BRR2 construct or PRPF8^Jab1 with 1.5-fold molar excess of partner, pre-incubated 10 min on ice; fractions by SDS-PAGE
T2 construct: For the cryoEM complex with C9ORF78 the co-purified proteins were treated with TEV protease and recycled on Ni-NTA; also called His10-BRR2^HR; source: insect cells

[3] = target: T3, full-length BRR2 (BRR2^FL) (human, UniProt O75643 1-2136); experiment: as above
T3 construct: BRR2 (SNRNP200), human, full length; The His10 tag is named only for the peptide SPOT array; also called His10-BRR2^FL; SNRNP200

[4] = target: T4, BRR2 C-terminal cassette (BRR2^CC, residues 1282-2136) (human, UniProt O75643 1282-2136); experiment: as above
T4 construct: BRR2 (SNRNP200), human, C-terminal helicase cassette, residues 1282-2136; The His10 tag is named only for the peptide SPOT array; also called His10-BRR2^CC
T4 sequence (looked up): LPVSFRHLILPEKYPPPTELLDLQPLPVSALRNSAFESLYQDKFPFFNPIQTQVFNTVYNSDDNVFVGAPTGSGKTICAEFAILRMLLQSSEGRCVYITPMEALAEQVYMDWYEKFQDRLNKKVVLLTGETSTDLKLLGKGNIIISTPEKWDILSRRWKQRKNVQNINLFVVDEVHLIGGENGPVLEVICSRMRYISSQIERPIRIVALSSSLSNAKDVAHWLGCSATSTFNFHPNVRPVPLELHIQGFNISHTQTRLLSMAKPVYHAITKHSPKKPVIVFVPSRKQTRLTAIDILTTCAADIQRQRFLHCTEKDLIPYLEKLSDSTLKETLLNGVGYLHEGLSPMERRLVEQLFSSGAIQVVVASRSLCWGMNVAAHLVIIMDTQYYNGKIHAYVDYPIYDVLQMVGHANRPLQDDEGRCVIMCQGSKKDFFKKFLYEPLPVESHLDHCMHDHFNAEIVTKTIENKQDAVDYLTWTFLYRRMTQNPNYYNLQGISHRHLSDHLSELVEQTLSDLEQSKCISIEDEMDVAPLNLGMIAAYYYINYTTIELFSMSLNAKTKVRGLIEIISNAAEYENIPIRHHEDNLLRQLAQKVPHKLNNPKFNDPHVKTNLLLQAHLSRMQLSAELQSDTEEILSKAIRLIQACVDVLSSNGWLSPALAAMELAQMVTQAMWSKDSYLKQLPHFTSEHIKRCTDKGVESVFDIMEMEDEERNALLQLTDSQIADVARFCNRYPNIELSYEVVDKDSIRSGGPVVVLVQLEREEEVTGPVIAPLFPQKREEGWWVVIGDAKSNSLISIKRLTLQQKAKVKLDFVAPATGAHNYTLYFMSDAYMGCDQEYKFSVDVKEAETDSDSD

[5] = target: T2, BRR2 helicase region (BRR2^HR, residues …); experiment: cryo-EM structure; complexes purified by SEC, 20 mM Tris-HCl pH 8.0, 150 mM NaCl, 1 mM DTT, 5 mg/ml, 0.15% n-octylglucoside; Titan Krios 300 kV

T2 sequence (O75643 395-2129): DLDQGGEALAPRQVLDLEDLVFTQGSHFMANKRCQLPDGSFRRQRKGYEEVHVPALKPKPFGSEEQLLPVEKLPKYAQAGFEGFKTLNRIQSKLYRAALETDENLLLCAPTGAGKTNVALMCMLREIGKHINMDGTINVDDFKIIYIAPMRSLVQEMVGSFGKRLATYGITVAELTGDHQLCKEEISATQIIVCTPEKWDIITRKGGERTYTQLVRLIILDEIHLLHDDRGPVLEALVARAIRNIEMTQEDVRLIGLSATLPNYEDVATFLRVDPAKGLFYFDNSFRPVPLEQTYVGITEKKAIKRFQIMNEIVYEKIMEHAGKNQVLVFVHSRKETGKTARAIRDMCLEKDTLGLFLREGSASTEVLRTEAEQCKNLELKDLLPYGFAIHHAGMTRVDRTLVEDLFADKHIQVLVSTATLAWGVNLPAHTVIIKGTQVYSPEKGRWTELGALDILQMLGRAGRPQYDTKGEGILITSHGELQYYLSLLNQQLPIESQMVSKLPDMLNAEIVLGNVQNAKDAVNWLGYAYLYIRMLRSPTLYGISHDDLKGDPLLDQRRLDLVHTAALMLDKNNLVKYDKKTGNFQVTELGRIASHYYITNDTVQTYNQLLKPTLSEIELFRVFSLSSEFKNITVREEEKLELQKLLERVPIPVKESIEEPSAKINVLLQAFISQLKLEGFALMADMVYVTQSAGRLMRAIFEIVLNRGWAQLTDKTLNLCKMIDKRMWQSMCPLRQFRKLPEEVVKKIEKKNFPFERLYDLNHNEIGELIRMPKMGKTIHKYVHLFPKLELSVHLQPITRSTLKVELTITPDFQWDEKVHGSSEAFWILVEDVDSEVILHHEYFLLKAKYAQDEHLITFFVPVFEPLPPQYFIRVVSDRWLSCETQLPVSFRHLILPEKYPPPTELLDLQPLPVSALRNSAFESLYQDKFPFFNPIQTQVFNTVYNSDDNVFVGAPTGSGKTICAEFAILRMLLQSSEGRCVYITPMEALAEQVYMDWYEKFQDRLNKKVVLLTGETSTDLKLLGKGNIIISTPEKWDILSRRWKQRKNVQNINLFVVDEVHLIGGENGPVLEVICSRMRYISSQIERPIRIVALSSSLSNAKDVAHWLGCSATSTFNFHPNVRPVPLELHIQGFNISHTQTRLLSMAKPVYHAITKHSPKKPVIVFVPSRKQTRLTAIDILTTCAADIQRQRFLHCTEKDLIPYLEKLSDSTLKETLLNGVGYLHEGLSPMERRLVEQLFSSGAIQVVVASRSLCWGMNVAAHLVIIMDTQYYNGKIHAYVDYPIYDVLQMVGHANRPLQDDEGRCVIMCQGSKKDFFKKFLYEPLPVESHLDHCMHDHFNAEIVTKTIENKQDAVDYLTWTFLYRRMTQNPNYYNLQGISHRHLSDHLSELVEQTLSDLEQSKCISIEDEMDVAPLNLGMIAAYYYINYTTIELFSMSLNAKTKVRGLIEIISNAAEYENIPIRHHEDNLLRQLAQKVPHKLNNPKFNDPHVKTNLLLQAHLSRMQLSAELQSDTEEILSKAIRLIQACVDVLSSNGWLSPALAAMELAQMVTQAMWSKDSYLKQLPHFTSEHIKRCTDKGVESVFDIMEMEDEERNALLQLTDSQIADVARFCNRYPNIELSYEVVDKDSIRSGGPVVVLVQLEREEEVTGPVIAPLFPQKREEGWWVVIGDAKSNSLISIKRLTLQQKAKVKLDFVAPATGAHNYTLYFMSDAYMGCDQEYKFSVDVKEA

B1: FBP21^116-376 (domain or fragment, human, UniProt O75554 116-376, looked up)
chain: KKKRKKDPSKGRWVEGITSEGYHYYYDLISGASQWEKPEGFQGDLKKTAVKTVWVEGLSEDGFTYYYNTETGESRWEKPDDFIPHTSDLPSSKVNENSLGTLDESKSSDSHSDSDGEQEAEEGGVSTETEKPKIKFKEKNKNSDGGSDPETQKEKSIQKQNSLGSNEEKSKTLKKSNPYGEWQEIKQEVESHEEVDLELPSTENEYVSTSEADGGGEPKVVFKEKTVTSLGVMADGVAPVFKKRRTENGKSRNLRQRGDDQ
binding result [1]: binds

B2: PRPF8 Jab1 domain (PRPF8^Jab1; residues 2064-2335) (domain or fragment)
chain: not shown
notes: PRPF8, human, Jab1/MPN-like domain, residues 2064-2335; also called Jab1/MPN-like domain
binding result [2]: binds

B3: His6-GST-C9ORF78 (natural protein, human)
chain: MPVVRKIFRRRRGDSESEEDEQDSEEVRLKLEETREVQNLRKRPNGVSAVALLVGEKVQEETTLVDDPFQMKTGGMVDMKKLKERGKDKISEEEDLHLGTSFSAETNRRDEDADMMKYIETELKKRKGIVEHEEQKVKPKNAEDCLYELPENIRVSSAKKTEEMLSNQMLSGIPEVDLGIDAKIKNIISTEDAKARLLAEQQNKKKDSETSFVPTNMAVNYVQHNRFYHEELNAPIRRNKEEPKARPLRVGDTEKPEPERSPPNRKRPANEKATDDYHYEKFKKMNRRY
notes: C9ORF78, human, 34 kDa; Tag cleavage led to degradation and was omitted for functional analyses in vitro; also called GST-C9ORF78^wt; source: E. coli BL21 RIL (pETM30), purified (Glutathione Sepharose, SEC); not shown: His6, N-terminal, kept; GST, N-terminal, kept
binding result [1]: binds
binding result [2]: binds
binding result [3]: binds
binding result [4]: binds

The remaining lines, values ahead:

binding result [5]: binds
B4: C9ORF78 (His6/GST tag cleaved, co-purified with BRR2^HR) (natural protein, human)
chain: B3 chain
notes: C9ORF78, human; the four N-terminal and 231 C-terminal residues not located in the map; 4 + 54 + 231 residues add up to 289, the length that I recall for the whole protein; not shown: His6, N-terminal, cleaved; GST, N-terminal, cleaved

binding result [2]: binds
B5: GST-C9ORF78^F8A (natural protein, human)
chain: B3 chain with F8A
notes: C9ORF78, human, with F8A; source: E. coli BL21 RIL (pETM30), purified (Glutathione Sepharose, SEC); not shown: His6, N-terminal, kept; GST, N-terminal, kept

binding result [5]: binds
B6: FBP21^200-376 (domain or fragment, human, UniProt O75554 200-376, looked up)
chain: HTSDLPSSKVNENSLGTLDESKSSDSHSDSDGEQEAEEGGVSTETEKPKIKFKEKNKNSDGGSDPETQKEKSIQKQNSLGSNEEKSKTLKKSNPYGEWQEIKQEVESHEEVDLELPSTENEYVSTSEADGGGEPKVVFKEKTVTSLGVMADGVAPVFKKRRTENGKSRNLRQRGDDQ
